Measurements taken from PMC5264503, “Structural and biophysical analysis of nuclease protein antibiotics” (Biochemical Journal, 2016).

Experiments:
[1] = target: wild-type ColE9 (colicin E9) (E. coli) (UniProt P09883); assay: stopped-flow fluorescence; wild-type ColE9 under the same conditions (PBS pH 7.4, 25 °C); data not shown
pyocin S2 = pyocin S2 (P. aeruginosa, UniProt Q06584 1-689); assay: SAXS; details: both partners purified
Chain of pyocin S2 (Q06584 whole entry): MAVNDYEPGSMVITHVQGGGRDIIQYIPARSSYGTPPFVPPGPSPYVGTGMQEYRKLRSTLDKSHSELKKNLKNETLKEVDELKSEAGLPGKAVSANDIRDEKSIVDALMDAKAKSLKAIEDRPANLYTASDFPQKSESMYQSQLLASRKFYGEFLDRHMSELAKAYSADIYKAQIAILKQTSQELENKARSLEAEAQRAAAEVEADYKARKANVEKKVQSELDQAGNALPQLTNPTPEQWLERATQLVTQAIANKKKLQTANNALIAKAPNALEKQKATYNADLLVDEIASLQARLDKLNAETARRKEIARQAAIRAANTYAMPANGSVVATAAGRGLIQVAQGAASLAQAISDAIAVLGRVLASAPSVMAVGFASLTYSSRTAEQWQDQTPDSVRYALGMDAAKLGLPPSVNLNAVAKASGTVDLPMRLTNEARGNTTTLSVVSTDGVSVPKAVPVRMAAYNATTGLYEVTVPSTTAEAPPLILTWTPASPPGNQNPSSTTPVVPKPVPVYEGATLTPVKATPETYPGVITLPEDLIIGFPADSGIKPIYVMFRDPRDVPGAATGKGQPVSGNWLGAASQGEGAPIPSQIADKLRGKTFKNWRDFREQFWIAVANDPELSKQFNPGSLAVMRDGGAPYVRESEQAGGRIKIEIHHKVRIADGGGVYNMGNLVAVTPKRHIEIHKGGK

Chain of Im9 (immunity protein 9) (P13479 whole entry): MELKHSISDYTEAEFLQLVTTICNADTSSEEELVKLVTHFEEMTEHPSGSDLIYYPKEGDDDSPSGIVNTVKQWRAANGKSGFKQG
Chain of wild-type ColE9 (colicin E9) (E. coli) (P09883 whole entry): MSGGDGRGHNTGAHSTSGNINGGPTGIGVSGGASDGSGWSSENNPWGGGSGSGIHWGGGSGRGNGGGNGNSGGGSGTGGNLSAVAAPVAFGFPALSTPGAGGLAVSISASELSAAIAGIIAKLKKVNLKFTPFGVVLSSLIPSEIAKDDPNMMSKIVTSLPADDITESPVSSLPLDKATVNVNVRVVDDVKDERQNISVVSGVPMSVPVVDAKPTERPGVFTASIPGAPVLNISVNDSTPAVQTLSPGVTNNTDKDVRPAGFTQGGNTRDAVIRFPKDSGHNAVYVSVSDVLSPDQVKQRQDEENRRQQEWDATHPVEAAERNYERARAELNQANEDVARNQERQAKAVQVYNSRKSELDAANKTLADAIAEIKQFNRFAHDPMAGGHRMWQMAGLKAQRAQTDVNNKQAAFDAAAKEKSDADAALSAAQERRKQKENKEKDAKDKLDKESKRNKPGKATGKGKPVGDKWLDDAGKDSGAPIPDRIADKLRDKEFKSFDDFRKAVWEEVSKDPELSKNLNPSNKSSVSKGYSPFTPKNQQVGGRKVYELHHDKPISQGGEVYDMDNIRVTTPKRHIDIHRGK

Molecule | k1 (bimolecular collision) [1] [M⁻¹ s⁻¹] | k2 app (conformational change) [1] [s⁻¹] | binding result (pyocin S2)
Im9 (immunity protein 9) (from UniProt P13479 1-86) (natural protein) | 1.28e+08 | 2.76 | –
ImS2 (pyocin S2 immunity protein) (natural protein, not shown: His6, C-terminal, kept) MKSKISEYTEKEFLEFVKDIYTNNKKKFPTEESHIQAVLEFKKLTEHPSGSDLLYYPNENREDSPAGVVKEVKEWRASKGLPGFKAG | – | – | binds
